The nature of this data set: label from the status in PepcDB records.

For the sequence “MIPYVNEYDTPNCNTLAETAKKSIRTPESLGLDRCIQCGACTASCPAARFTDYSPRQIVKKVLENDRSVLESDMIWSCFYCYSCNMRCPRNNSPVTIVQVLRQMAINEGIGIGKLAYFLEIGECLAENGASKVPGAGVKNMERDLGERWIGIKRNLEPIRSELGLSPRDVRDTHGEVQAILESTGYFEREKWIKAGIQEKKLHGFLKADCSDEEKKNGDFCFESDREYTGQEAITV”, the protein production entry is listed as “failed”. In the case of “MIQEIASILVQPGREADFEAGVAQARPLFMRARGCHGVALHRSIEAPQRYTLVVDWETVDNHMVDFRQSADFQEWRKLVGECFAEPPQVHHEQKVL” it was “not failed”; in that of “MIQSSLYRALNKGFDYQILACKDFKESELAKEVISYFKPNTKAILFPEFRAKKNDDLRSFFEEFLQLLGGLREFYQALENKQETIIIAPISALLHPLPKKELLESFKITLLEKYNLKDLKDKLFYYGYEILDLVEVEGEASFRGDIVDIYAPNSKAYRLSFFDTECESIKEFDPITQMSLKEDLLEIEIPPTLFSLDESSYKDLKTKVEQSPLNSFSKDLTSFGLWFLGEKAQDLLIVYKSIISPRALEEIQELASLNELDCERFKFLKVLENAQGYEDLEIHAHALEGFIALHSNHKITLLAPNKTILDNAISALDAGNMECVIAPFVLNFKTPDGIFISLNSFERKKKRQKSKLALNELNPGEWVVHDDYGVGVFSQLVQHSVLGSKRDFLEIAYLGEDKLLLPVENLHLIARYVAQSDSVPAKDRLGKGSFLKLKAKVRTKLLEIASKIIELAAERNLILGKKMDVHLAELEVFKSHAGFEYTSDQEKAIAEISKDLSSHRVMDRLLSGDVGFGKTEVAMHAIFCAFLNGFQSALVVPTTLLAHQHFETLRARFENFGVKVARLDRYASEKNKLLKAVELGQVDALIGTHAILGAKFKNLGLVVVDEEHKFGVKQKEALKELSKSVHFLSMSATPIPRTLNMALSQIKGISSLKTPPTDRKPSRTFLKEKNDELLKEIIYRELRRNGQIFYIHNHIASILKVKTKLEDLIPKLKIAILHSQINANESEEIMLEFAKGNYQVLLCTSIVESGIHLPNANTIIIDNAQNFGLADLHQLRGRVGRGKKEGFCYFLIEDQKSLNEQALKRLLALEKNSYLGSGESVAYHDLEIRGGGNLLGQDQSGHIKNIGYALYTRMLEDAIYELSGGKKRLEKSVEIQLGVSAFLNPELIASDSLRLDLYRRLSLCENTDEVGQIHEEIEDRFGKIDDLSAQFLQIITLKILANQLGIIKLSNFNQNITITYSDEKKESLKAPSKDDNDILETLLKHLRAQISLKRR”, “failed”.

Consider “MIRGGRNNITSAPAFSKDAKKLLLCTANTVSVYSVATGLKITSLEDHTAPVTSVIVDPSSDETVSYCWTSSLDGKIRIWEFSAPKLLKIFDTHLPIHSLVMIPAQVSHSVIAYVSVEDYSSVSKDLFGQIRRYDLTQDPLHSGDTLKEMEEPKPIVLSPSGEFFGVCHNCSIHIWNVASEHLMPKETTLHHTELITVFAFHPNQRILAAGDVTGRVLIWKDNGIGEFTSVKTEDDTESCTTFNWHSAEVTVLNFSSDGALLYSGVKAGDFVVWELGTGKKQLLPKIGSPLLYFIFSSDSTLSSVICADNQIHLLKMPSMEILRTISGIKPPTPERHGFICYVKTRDICLTRTVSIDRSSGIAAFCTANHRVQLYNLLSDHDISEVQICDHHPDDDDQVRVLVTAVALSRNGSVMTTAEARFAASNFSEGIVSLKFWVFVPDSKTFSLSTVINQPHREAAITAIALNPARSMAVSISSAGDFKIWVCSSDKNLTPEDSNWICHGVGSYKRTPITAAVFSGDGSCLALAAKTVITIWHPLKNELLYVVGKANAPIMELSFTGGGFLIAASHGSTPHLSVWDLMTFCLSWSYRLYIEAIATEVDSPYFAVLTWLPESDRLVKSNEQIFRGKDGAILLFDGSGPKPVAIWTVMKARGGTLSFVEDGKKSQPLLAYVNRSHEYVLFDPYSDEKLETSAIDYEVFLAAISKKKKRSRKKALMSEKPWETMFCGSTLNFPPFPDLCASFFSSRMQKEVCERADRQPERHSS”, for which the protein production result was “failed”. Take “MIRILICFSLITASLLITSIFANSALLFTEFIHSLVDLIPIAFAFYALRIIDRIDSKYTYGLHRLEIVSSLFNIFTVVAGSVFSVYISTVELIEGSRGDFLLVLISSSIALSLSLVASTDKSEEGRVSGSKLHAIQDSLAYILAVISSLLIIIMKIYFIDPVSAYILNGVLVITSLSPLKFSYNILMEKSPIDTKSVETELQSIFPQVHHIHVWSICDHLNVATLHVRENPDLTLRELDKKREYAEKVLREKFGITHVTIQFEANNKKERLEKI”: the protein production entry is listed as “failed”. As for “MIRKLDKAEFQQATTLALEVYLQCGQDDFEDEGLESFKSFIFNDKLMNELCIYGAFEENKLIGIMGTKNEGKHISLFFIKKEFHRKGIGKQLFDYSQCDCPANEITVNSSTYAIRFYESLGFEKTNDRQQTNGISYTPMKLISNKLEHHHHHH”, the entry is “not failed”; as for “MIRKLMICIAVLVGFCPMAWGTVDDVPNPKTYDADNWVSDPDHILDSETKNKINDILQQLEDSLTIEVAVVALNSIGEEEPHEFAVTLFNLWGVGKAKDDNGLLILLTRDIRDITFKTGYGLEGVLPDAICKRIQMETMVPHLRENDWNTGMLEGVKAVAAVLYGSDYQAAPPEAWIKKFRRTTPSLVFIVFALMLILINWLVWKSAVHRMTPKDEGTEAALALLATRNPFTARTLLGLCWLVPVWPAMLGIACWYFGIQKQKTLRRSRTCPKCNRETLREIPLHELIKDTKRLTESERKETELKTAYIRIYRCSACSEEVKIRIPLEKDGYECCPSCGHMTLHKEEKYRTIIKATTSSEGLMEARHRCMYCDAEYMVGYTIPKINPSSRRSGGSGGGGGGSFGGGSSGGGGSSSRF”, “failed”. Turning to “MIRLNVFVRVNETNREKAIEAAKELTACSLKEEGCIAYDTFESSTRRDVFMICETWQNAEVLAAHEKTAHFAQYVGIIQELAEMKLEKFEF”, the protein production entry is “not failed”.

“MIRSIVCTQRLIHRIMYTSARKYFIQFAIVAFVLGFIPTLYFIHAASQLETQAVSSVEKQTRLQLEFSQHDLLRMLESTHQATQLLAKNDLLFTAVTTPSKEALSQLKTLWDVTLRSQAIFSSFRLLDRQGKEQLKAIYDGHQVTFVESAQTTDPFSQQIVAQYAQLTTPQVWATQVAMSADTPSGMLPTFRFVTGIEHQGQRQGFLVVTVKLQSLYQRLSFIYDQFDSPDILNSAGELLLSEHKPSGTRSTSSLHFSAQHPELWQKIQLNQQGFALSNQTWFSYIKVDLSSVLPDFKPLVLVLRINKAEIDKTYANARWALMSQAVTVLSLLSIIAAGFAAWNINHLKNSLDSKLARAAMDGMSAVVITDRQNRIIKVNNEFTRLSGYTFEDVKGKQPSIFASGLHKVEFYMQMWKALQDNGVWEGEVINKRKDGESITEILRIQSIRDEDNVIQFYVASFVDISHRKALENRLRELSEKDALTDLWNRRKFDQTISLECAKRRRYPDQAQSCLAIIDIDHFKRINDKFGHNEGDLVLRTVAKGIQDQLRESDFIARIGGEEFAIIFPYTSIEEAEQVLNRVRLHIASLHHQQVTLSGGVTDVCTSPDQSYKRADLALYESKTSGRNQISVLTAMEMHHFA”: the protein production result is “failed”. In the case of “MIRVASLIKAMSDTQLQIAQGASPLTGLPGNSAIEQEIKRRLNSGNAFGMIYADLNQFKAFNDTYGFQYGDSIIKLLGKILMQDSLKADDLAFVGHVGGDDFIILTTQNVTKTLGETILLSFQEQLSAMQGAQDLSLALAGLIIYPHTAWTPATLSERIAAVKREAKKAHCNYFLLRELEHHHHHH” it was “failed”; in that of “MIRVMATGVFDILHLGHIHYLKESKKLGDELVVVVARDSTARNNGKIPIFDENSRLALISELKVVDRAILGHEGDMMKTVIEVKPDIITLGYDQKFDEAELQSKINKLGITVKIVRISKYDGQLNSSSSVRKKIMELIGERY”, “not failed”; in that of “MISALDSIPEPQNFAPSPDFKWLCEELFVKIHEVQINGTAGTGKSRSFKYYEIISNFVEMWRKTVGNNIYPALVLALPYRDRRIYNIKDYVLIRTICSYLKLPKNSATEQRLKDWKQRVGKGGNLSSLLVEEIAKRRAEPSSKAITIDNVNHYLDSLSGDRFASGRGFKSLVKSKPFLHCVENMSFVELKYFFDIVLKNRVIGGQEHKLLNCWHPDAQDYLSVISDLKVVTSKLYDPKVRLKDDDLSIKVGFAFAPQLAKKVNLSYEKICRTLHDDFLVEEKMDGERIQVHYMNYGESIKFFSRRGIDYTYLYGASLSSGTISQHLRFTDSVKECVLDGEMVTFDAKRRVILPFGLVKGSAKEALSFNSINNVDFHPLYMVFDLLYLNGTSLTPLPLHQRKQYLNSILSPLKNIVEIVRSSRCYGVESIKKSLEVAISLGSEGVVLKYYNSSYNVASRNNNWIKVKPEYLEEFGENLDLIVIGRDSGKKDSFMLGLLVLDEEEYKKHQGDSSEIVDHSSQEKHIQNSRRRVKKILSFCSIANGISQEEFKEIDRKTRGHWKRTSEVAPPASILEFGSKIPAEWIDPSESIVLEIKSRSLDNTETNMQKYATNCTLYGGYCKRIRYDKEWTDCYTLNDLYESRTVKSNPSYQAERSQLGLIRKKRKRVLISDSFHQNRKQLPISNIFAGLLFYVLSDYVTEDTGIRITRAELEKTIVEHGGKLIYNVILKRHSIGDVRLISCKTTTECKALIDRGYDILHPNWVLDCIAYKRLILIEPNYCFNVSQKMRAVAEKRVDCLGDSFENDISETKLSSLYKSQLSLPPMGELEIDSEVRRFPLFLFSNRIAYVPRRKISTEDDIIEMKIKLFGGKITDQQSLCNLIIIPYTDPILRKDCMNEVHEKIKEQIKASDTIPKIARVVAPEWVDHSINENCQVPEEDFPVVNY”, “failed”. On to “MISLRTFLITFLVNIALLGIFWGNRMNFVDVVIFSFFSALFVSLATHILVTSRLRKLREAVARKSRFEDFLNDEITKLAEEVNSVVENSLIQEKETEKLKDIVTGFVHDVKSLVWNEVEDENLQKIIEEFYEFAKLEAGLERLRKEPVNLVELVNDVVEKFPGKVIFKYDDVVEVEADPMKLFRAFYNVIENAVKYSSGPVEVHVKKDRIIVKGPGPEIPYEVRANLFEKKKKSKGTGLGLYLAREFFEMHGFRIAYRREGNHNVFEIYTGYTGMSSVKSERDSR”, for which the protein production result is “not failed”. As for “MISMKEEIKKVIEETGLPIITDEKSGAAQWVDLRELRLSYIISVENIKPFYEGLKEGKLLGTKCKKCGRLFFPPQKDCPSCFDSDIEWVELKNEGTLETMTVVFVRPPSFSAYDPYPVAIAKLDDGPRILAWYKGDPQQAKPGMRVKIQVGKRKEGYLMYEIAPALEHHHHHH”, the entry is “failed”; as for “MISPDAKIKIQNFGRFLSNMVMPNIGAFIAWGFITALFIPTGWLPNETLASMVGPMITYLLPLLIGYTGGKLVGGDRGAVVGAITTMGVIVGTDIPMFMGAMMVGPMGGWAIKKFDNYIDGKVKSGFEMLVNNFSAGIIGMLCAILAFFLIGPFVKVLSGALAAGVNFLVSAHLLPLTSIFVEPAKILFLNNAINHGIFSPLGIQQASETGQSIFFLIEANPGPGLGILLAYMVFGKGTARQTAGGASIIHFFGGIHEIYFPYILMNPRLILAAIAGGMTGVFVLTMFNAGIVSPASPGSIFAILLMTQKGSIVGVLASIAAATGVSFAVASLLMKTQTSTEEDGDEAALEKATSQMKDMKSSSKNGAVVNNESKGDVDLATVQSIIVACDAGMGSSAMGASMLRKKVQDAGLNVHVTNLAINSLPESADIVITHKDLTGRARKHAPNAHHISLTNFLDSEMYNQLVTKLLAAQKQSAANDDQMVKVSVLAANDDSFEPQQPSVFQIQRENIHLGLKAANKEEAIRFAGNKLVELGYAEPEYVDAMFEREALVPTYLGESIAVPHGTVEAKDRVKKTGIVICQYPSGIQFTEDDDDVAKLVIGIAAKNDEHIQVITTITNALDEPEAIEKLTSTNDVEEILNILGGQQAA”, “failed”. In the case of “MISRQQKMTFKEIKDGEMEERDILLTGFYNVRLNSVQEARLTYNLPNDQTVKFGFDGNGYSYGSDFWYIYNRTAQLGKEISSHLDENASKWIEEAGQKGYTTGNQAKVGAIACLPSYLSDAESSSHLAFVEYLNSDGSFIVSEMPSPNILNWRLIQPQSKMTFIYL” it was “failed”.

The values are drawn from a protein production outcome set (Wang et al. 2014).
